These results are taken from PMC3174981.

In this test the target is HIV-1 Gag polyprotein (p6 region) (HIV-1 (NL4-3)).

“HIV-1 Vpr L22E (from UniProt P12520 1-96) (natural protein)”: the % Vpr incorporation into virions relative to WT Vpr (western blot densitometry, Vpr band normalised to p24 CA) is 20 % of WT.
